Among the data in article PMC8888459 are binding as percent of the WT control, percent of the control left pulled down with Yah1^GST and percent reduction of Nfs1, Isd11 and Isu1 pulled down with Yah1^GST values, retold here.

Test [1] concerns the target Yah1-GST fusion protein (S. cerevisiae) (UniProt Q12184). In words: pull-down; GST-tagged Yah1 bait (2.5 μM) incubated with NIA (5 μM or increasing) and/or Isu1 (7.5 μM) in buffer PD (40 mM Hepes–KOH pH 7.5, 5% glycerol, 100 mM KCl, 1 mM DTT, 10 mM MgCl2) 15 min at 25 °C; glutathione agarose 1 h at 4 °C; SDS-PAGE, InstantBlue, densitometry corrected for binding to GST; aerobic (Yah1 cluster oxidised).

Test [2] concerns the target NIA–Isu1 complex with C. thermophilum Isu1 (S. cerevisiae | E. coli (endogenous in the expression host) | C. thermophilum) (UniProt P25374). In words: pull-down; competition: Yah1^GST (2.5 μM) with NIA (5 μM), with or without Isu1Sc or Isu1Ct (7.5 μM), then Yfh1 WT or DE/KK added (12.5 μM or increasing concentrations); glutathione resin; densitometry, amount without Yfh1 set as 100%; buffer PD.

Yah1-GST fusion protein (S. cerevisiae), sequence (Q12184 17-172): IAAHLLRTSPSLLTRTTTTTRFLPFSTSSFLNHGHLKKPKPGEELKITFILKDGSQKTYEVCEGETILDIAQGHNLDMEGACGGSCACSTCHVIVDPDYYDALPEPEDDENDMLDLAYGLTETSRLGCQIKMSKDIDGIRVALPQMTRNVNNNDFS

Take “NIA–Isu1 complex containing Nfs1(R313A, R316A, R318A), with Isu1Ct (from UniProt P25374 37-497; Q6Q560 1-94; P0A6A8 1-78)”: in test [1], the binding as percent of the WT control worked out at 30%.

As to “NIA–Isu1 complex containing Nfs1(R313E, R316E, R318E), with Isu1Ct (from UniProt P25374 37-497; Q6Q560 1-94; P0A6A8 1-78)”, the binding as percent of the WT control in test [1] is 20%.

In test [2], “Yfh1 (frataxin) with a C-terminal polyhistidine tag (from UniProt Q07540 52-174) (natural protein)” yielded a percent of the control left pulled down with Yah1^GST at 5 μM Yfh1 of 30%; a percent reduction of Nfs1, Isd11 and Isu1 pulled down with Yah1^GST at a fivefold excess of Yfh1 (12.5 μM) of 85%.
